Measured values from the domain aggregation screens of Martell et al. (2025).

assay: soluble fraction after stress (log2 fold change); higher = more stays soluble; pooled small domains, quantitative proteomics; conditions: stress: 75 degC
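Further: 20 min heating vs room temperature control held 20 min.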

First: HMEKLSMLKIKELFRLAIEMNLSHRQIAQSLNVSHTVVNRYLKRFKKSNLSYETLLKLGDKEIISALYEH
Second: HMEKPAQDVLASHREWMGEMIKAEHMTAKQVWRLLRERADIGVSYPTVKRYLRAHFQFGGPS
The “soluble fraction (log2)” value of the first is lower: -3.67 for the first, -1.57 for the second.

Compared with “HMEKRLDYTFGLNKEQLLYLTKSIKDGDFYNVSFIDGTEKKLNRVGSTKEVHKYVNFLMTNDGIVKK”, “HMEKSLKELAQGVGQKVLTSGRPYHFDPMSAMERRVVHMTLMEMDGLRTESEGEGRFRHVVVFPA” is higher in “soluble fraction (log2)” value: -0.389 for the first, -0.0884 for the second.

“HMEKTEQMQVILDYIARYGEINNEKVQEILGVKRTRAYTILKQMVENGFVTTNGRGEEKKYYSIR” and “HMEKTIQIYDNIIIKDFAEKMEVSPSQVITKLIGLGVMANLNQPIDINSAVIVGKEFGFNVESM” are within 0.2 log units of each other in “soluble fraction (log2)” value: -1.25 for the first, -1.29 for the second.

Going from “HMEKVLPFEFERKFKTNHTAWDFFSNQAPPSYRKTVIHWILSAKQEITRISRLEKLIAASEQQKRI” to “HMEKYIVNQEEQGKRLDIYVVNKSSELTRTAVQRLIEQEHILVNGRKQKASYKVLEGDIITIERV”, the “soluble fraction (log2)” value rises from -0.518 to 0.753.

Compared with “HMEKYTDDLEIAAEIARLETLMEGNGRVLIRPSGTEPLVRVMIEGNDIEQITKLAEDLAALLNKRF”, “HMELDFNSVYRQLNHEQKQAYQSIKSVLEQKISGSELDKKLKQAQQAFVAKFKENPNFEVPK” is higher in “soluble fraction (log2)” value: -0.717 for the first, 0.608 for the second.

First: HMELDIGKKAIVIEKIDPEAGTGRVRIEGVDWGAKTADSSVIEKGETVVVKAKGAAFVTVAK
Second: HMELEAFPNPTDMFLSFTTKEKTPLAIYDINGKQVLYVEQITSSSKINVSKLSEGVYFAKTNQGTVKWVK
The “soluble fraction (log2)” value of the first is higher: 0.0983 for the first, -2.35 for the second.

First: HMELEQLKSQLTGFLKANREQIFTAQNLADGLRMTDSQGYKQVVNALNASVRDGDVIDIKNGYQYNKN
Second: HMELEWENYSLAGEIKTTVMLYQNRRNGLPEEAKQKADALMKQLKQAVIENDAQKVEKIDDALTALLFE
The “soluble fraction (log2)” value of the first is higher: 0.0444 for the first, -0.564 for the second.

First: HMELGYTPNNLRSVRAKYGLTQKQVAEITGLKTWHPVNRWEAPVEAAYHADMPHTKWLKLLDELSSR
Second: HMELKYIDYDEALVVYAKTVTASGGGLSGVKDEGGIRKVLDFVQNDLYYPTFVDKLTYLVFGL
The “soluble fraction (log2)” value of the first is lower: -1.45 for the first, 0.168 for the second.

Compared with “HMELLPAERRQQLVDWFKSNQAGTSQDLARMFGISVSTIRRDLDLLASEGLVKRTHGGAVSIR”, “HMELLPFEFARANRVLLRVNESDLVVSPDANHSAVTEILRLNNNIETIKSVDAEAFDKILSSIYSG” is lower in “soluble fraction (log2)” value: -0.055 for the first, -0.804 for the second.

First: HMELLSVPSRLGTFFLGGEAGHIIRLYLPGDPTPRIAEHETPVLSEARRQLLEYLAGRRTAFSFPL
Second: HMELNEIEFENLKESIIIHLEKESLSPHELVKHIQTIHPDKVTAVIQWMLENGFIKTDAGGQLTLVSK
The “soluble fraction (log2)” value of the first is lower: -0.0691 for the first, 0.199 for the second.

“HMELNELTSRELMVAEQVARGASNREISEALSISERTVKAHLSAAFEKLGVRDRVQLALAMNNIPT” and “HMELNKNDLKIIKNISHIYPYFTPVKILQLILSKKFKTIDYNKILKSTSILTTDRSHLYYILNN” are within 0.2 log units of each other in “soluble fraction (log2)” value: -0.106 for the first, 0.0816 for the second.

First: HMELPSDEHLDDISHLARIGHKKGLQEKIIQLEQQGLASAEFIQQLKTLTNNFQFEKIIQWVDSEL
Second: HMELRIREILESKDIKVSSLAETVGITRANMSNIVNGKSTPSLETLEKIANALGVDITELFA
The “soluble fraction (log2)” value of the first is higher: -0.055 for the first, -0.432 for the second.

First: HMELSAEGWVDGTGVRMRASASTDSEVVRVTEDGESLDITGVSGTWYRVTAGGVSGYIRSDYVSLEEP
Second: HMELSAQEIGRRLRIARENADIRQDDAAQVIGMSRPTLVSIEKGVRRVRIQEIQMLARHYGVSVNALLR
The “soluble fraction (log2)” value of the first is higher: -0.0699 for the first, -2.2 for the second.

Compared with “HMELSVTDRTRQIRHILKEKGRVEFTSLFEELTKPYVIVTFLSVLEMSKNNELMITQDKTFGSITLEMKG”, “HMELVIGESLAVELLRPGKEDGQALGYLPDGSMVVVNNGRAFVGKRVTAEIIGVIRSAGGKMVFSNLLGE” is lower in “soluble fraction (log2)” value: -0.446 for the first, -3.36 for the second.

First: HMEMDITIQMRTLVEELNRASDAYYNGRGELMTDYEWDAKFDQLKQLESQSGVVLPDSPTHRV
Second: HMEMELNHVARRAGRLSGFLKGELRLSTGLMNRLKWSNAILVNGKPARTNAQVEPGDRITVILD
The “soluble fraction (log2)” value of the first is higher: -0.244 for the first, -2.35 for the second.

“HMEMLQENIRNLRKAKGWSQEELAIKLNVVRQTVSKWEKGLSVPDSQMLIRIADELDTTVAILLG” and “HMEMLQRFIFLENVSSTQVESAIKELHPNLNLKRVKLSFPGADTVLLKGPKQDLELAEELIRHLDRSE” are within 0.2 log units of each other in “soluble fraction (log2)” value: -0.705 for the first, -0.652 for the second.

Going from “HMEMPGGVMRTLSTIAYNQPVLQSKLVKVRGPRAYEDVHILRDMGLVSARSVGQTVELSTTPKFAEQF” to “HMENEIFVPKVFMDWYNKVDKSIKVFKAFNLIEKETDPRLKEWVEDNQDEFAKIWLGQLLPVV”, the “soluble fraction (log2)” value rises from -0.622 to -0.155.

First: HMENFIPDDPKRIEIGMSVLHQRFGKGKVMQLEGNLPDMKATVNFEGEGQKQLLLKYARLKIV
Second: HMENIDVGQDYKVTMNTIQNLMKTGLVTGTQYKELLREMGVHSGMGAITAQQHQIALDFLNKTMDSA
The “soluble fraction (log2)” value of the first is lower: -0.99 for the first, no less than 1.04 for the second.

First: HMENIIKISASYEGLRVDQFLSNYLKISRSKVQKYISEEKIFLNNVPTKTNRKVKLDDIISYNLNF
Second: HMENITTILRSIKNEIKKNSTFVGDDFVNQARSMNQGQIKEKSIYGHGTKKEIEELRDEGVDVLNIPWIT
The “soluble fraction (log2)” value of the first is lower: -3.01 for the first, -0.104 for the second.

Compared with “HMENKIIKNAAHATLKVKKDAGIEITTELIREAVILFHRIYSPNDNPNINWERIINELESHYT”, “HMENLFPDYTMQDYRIVRSELSSKFKVQTVPVTTATATENKIVRQEPEAGSRITEGMTVILYYSIGPE” is higher in “soluble fraction (log2)” value: -3.66 for the first, -1.51 for the second.

First: HMENLRLSELTVERGHRLAGRTLADIASAPNSPKYLIVLIQRGQETVIPTGSTVILPGDVLILAQS
Second: HMENMSFGTKLYTWLYGKLVGSDEIGNKYYTNINDPSDLNAKRWVIFNGEIEASKIPPHWHAWLHKSIDK
The “soluble fraction (log2)” value of the first is lower: -1.7 for the first, -0.918 for the second.

“HMENMTLGQRIQALRKQHGLSQEGLGERLGVSRQAISRWEMDGAVPEVDKLIAMARLFGVSLNQLLGVE” and “HMENNIPANIKALIISYVNQNYPGAVIHSIERNSNGTYDVEIYYNNREYDLLFDAQGNFISGNVDDQ” are within 0.2 log units of each other in “soluble fraction (log2)” value: -0.193 for the first, -0.0333 for the second.

Compared with “HMENNIRLSVPDTESGQRIDSYLAEQIPGLTRSAVQNLLAEQAVTIAGKAVKKNYKLLGGEDILVQLPEVR”, “HMENPPISVVIPPSFRGQRIDKALGSLIGDYSRSKIQQWLQSGLVQSAGEPLLPKYTVLGNEQILIAVPS” is lower in “soluble fraction (log2)” value: 0.217 for the first, -0.13 for the second.

“HMENQGEDMRQQVKALVNADKTNITKLATATGYSRSTISMYLAGNYKGDVEAVERRLEEYMKTQG” and “HMENSYSVEDLALKAAISVDTIRYYQGLGLISPPQKNGRRAIYGNDHISRLEEIKKLAFEGFSLRQISLL” are within 0.2 log units of each other in “soluble fraction (log2)” value: -0.0512 for the first, 0.111 for the second.

Going from “HMENTIPSVIGRTLSDGVFLLESYGYVKGNVSEEFSEMPIGVIIRQFPGAGSAAEAGTRVDLVVSKGEEIV” to “HMENVALYIRLKSMASVYDDVHGYNIEWIKSMIGLSIDIEKLRTVLEDVSWITKVEEDVYSFSKNAKPFE”, the “soluble fraction (log2)” value falls from 0.124 to -4.31.

Compared with “HMENVQLRNFAIKATEAGIIKLSSDQRTFMWASNQKKLMTVPFDEHPYSAMAQFFKTDEGLAVFKSIEKKL”, “HMEPADALVAALVARGVSPSTARITVKQYPATRIQPQLEVFDYLVAQKDPKVSRNPPGFLLSAIRGEYA” is higher in “soluble fraction (log2)” value: -1.47 for the first, -0.718 for the second.

First: HMEPAPELTPREQQVLARIALGMTDKAIAEELGVSHQTVRNHVARIYQKIKVHSRSQAVVWAREKGI
Second: HMEPDEESVRLKEEILSRIDYWHTTMPYMGTRKLAAKLRTEGYAVGRKLVRTYMREMGIHAVYP
The “soluble fraction (log2)” value of the first is lower: -1.47 for the first, -0.103 for the second.

“HMEPELSVDMKPLDGLLLAIKKELQAAQMYTRLARASADAEQKMVFEQLANMEKGHKARLEDIYT” and “HMEPESTMIEISETLTNERLDRYLATKLPNVSRGGIQRLLREGNILVNGKKAKPTQHPVAGQKIEITWPNP” are within 0.2 log units of each other in “soluble fraction (log2)” value: -0.079 for the first, -0.0291 for the second.

“HMEPEYIGELEKRIKKLKTHTYSSIDRLMKSISKKYKITTQVLHDDFKNKHNEIPDEWVKQF” and “HMEPKIKQIVPNVVNYPVEDAKNVLVNSGLIVQIRGQGNIVYDQVPKGGAEVTRGTTVILDLNPPPGA” are within 0.2 log units of each other in “soluble fraction (log2)” value: -0.126 for the first, -0.0576 for the second.

“HMEPKQIEVPNLVGISSAAARQTLSALGLHAVVKDSIWSETERIDTVLEQNPAGGALIKPEGTVYLRVSR” and “HMEPLIRTLEEQIAEKIKNYRKGTRVYDAEHVDRWISQLPEEERMVVLTETNRLLEQNYVDQAKLME” are within 0.2 log units of each other in “soluble fraction (log2)” value: -0.0959 for the first, -0.0452 for the second.

“HMEPMLEIFDAKIDLADVLAVESGLVRLRGGAEVTSPRVDVDAGARLELDSGARLNVERLSY” and “HMEPMTDQQILEGFAEFKRQNPDLMNRPATQAIVNLTLPGGTPISFRSGAGAAALNQYLESIGMRAGP” are within 0.2 log units of each other in “soluble fraction (log2)” value: 0.155 for the first, 0.0601 for the second.

First: HMEPPAPAPDIPYPSRVTVRREVDGWPHYYGTWTRTPPVLGYEGIWLVGVSLDGKVQFVPVDDVTIA
Second: HMEPREEFTFADLRANGLNGTAAAAGRRAALGAALGIGYGNAKQFLRRLNHYGVTRSEWEAALADLDE
The “soluble fraction (log2)” value of the first is lower: -1.17 for the first, -0.752 for the second.

Compared with “HMEPSERYKALQSLLPDYAKRLKKKGVTRHQLFLEYRLTHPDGYARSRFGTYFQAYLALSHP”, “HMEPTLVVARDKDAKSPLVAKLMKELGVDAAPRVIVDDSVIGGAKLSHNHTEIDATYKTALINLYQAIT” is higher in “soluble fraction (log2)” value: -2.32 for the first, 0.19 for the second.

Going from “HMEPVFSDPARQTLYQEVMELPAKYRVPLYLYYYEGYKVDEVGELLGLNASTVQTRLARARAKLKIQL” to “HMEQETVTVPDLVGKDVVAAQAELHEMGLSGKPDGTGTTVVSQFPVAGARVLKHTNVILYTED”, the “soluble fraction (log2)” value rises from -0.489 to 0.296.

Compared with “HMEQFRENIVRIYMEIDDYENGAKFLEMGNNRDASFYELAGDFYKYFGENELANENYDLAISA”, “HMEQIPEEYKKIYSLITDIPININDIAKKSLLELREVSSKLTMLELDGKVVKLPGNMYIRGDL” is higher in “soluble fraction (log2)” value: -0.629 for the first, -0.195 for the second.

Compared with “HMEQKELAPLVPQEDGSVKLTNLAGYSMREVAAALEGGNLSLIPIGSGTSWKQDPAPGTVLQPGNTVTVYF”, “HMEQPLSLKLANNAFSRFWGNANPAEKDTQPNNSDIAKWVIEQSGGKITQTMADKIAQIIRPEWAA” is higher in “soluble fraction (log2)” value: -0.297 for the first, 0.372 for the second.

Compared with “HMEQSGDELKTWVDQAIAAYPEKVKEYQQGKKGLLALFIGEVMKRSKGTADPKKVNQLVTEALS”, “HMEQTMNDMLKLVDLLPQNQQDIVRMRFYENMSFKEIAESNQISINTALGRMRYAILNLRKYAAERNL” is lower in “soluble fraction (log2)” value: -0.164 for the first, -2.59 for the second.

First: HMEQVLDEEIIKSAVQKVIKDNPSAVSDYKAGKKTAFQFLIGKAMAELQGKGHPGKISELLEKE
Second: HMEQVQQIPIEELFPFKEHPFKVLDDEAMQRTVESVAQYGVLAPLIARPRPEGGYEIISGHRRQHAAELYR
The “soluble fraction (log2)” value of the first is higher: 0.474 for the first, -0.0469 for the second.

With “HMEQWVSIEVEPGIRLDVALTEATQKSRSFIQNLIAEQRVLVNGQPKKANYKVRPGDHVELNYPEPT” the “soluble fraction (log2)” value was -0.29.
